Publication PMC4914081
Numbering of substitutions follows the chain as printed.

Assays:
Cac1C (C-terminal WHD) [1] = target: T1, Cac1C (C-terminal WHD) (budding yeast, UniProt Q12495 520-606); assay: EMSA
Cac1C K577E = Cac1C K577E (budding yeast, UniProt Q12495 520-606, K577E); assay: EMSA
Cac1C K553E = Cac1C K553E (budding yeast, UniProt Q12495 520-606, K553E); assay: EMSA
Cac1C K583E = Cac1C K583E (budding yeast, UniProt Q12495 520-606, K583E); assay: EMSA
Cac1C (C-terminal WHD) [2] = target: T1, Cac1C (C-terminal WHD); assay: EMSA; remark: listed apart in the source
Mmp150C = target: T2, Mmp150C (mouse, UniProt Q9QWF0 706-827); assay: EMSA
T2 sequence: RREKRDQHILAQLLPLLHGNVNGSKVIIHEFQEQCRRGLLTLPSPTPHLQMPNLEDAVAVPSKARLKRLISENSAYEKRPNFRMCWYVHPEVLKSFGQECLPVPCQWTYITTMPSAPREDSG

Hsp150C = Hsp150C (human, UniProt Q13111 727-854); assay: EMSA
Mmp150C 4KE = target: T3, Mmp150C 4KE (mouse, UniProt Q9QWF0 706-827, K768E;R770E;K772E;R773E); assay: EMSA
T3 sequence: T2 sequence with K63E, R65E, K67E, R68E

[3] = target: Cac1 (in CAF-1);GST-Cac2;Cac3 (budding yeast (Saccharomyces …, UniProt Q12495;Q04199;P13712 91-606;1-438;1-422, ||)); assay: pull-down
Cac1C (C-terminal WHD) [4] = target: T1, Cac1C (C-terminal WHD); assay: pull-down
GST-Cac2 = GST-Cac2 (budding yeast, UniProt Q04199 1-438); assay: pull-down
Cac1C (C-terminal WHD) [5] = target: T1, Cac1C (C-terminal WHD); assay: EMSA; remark: listed apart in the source
Cac1C (C-terminal WHD) [6] = target: T1, Cac1C (C-terminal WHD); assay: EMSA; remark: listed apart in the source

T1 sequence (Q12495 520-606): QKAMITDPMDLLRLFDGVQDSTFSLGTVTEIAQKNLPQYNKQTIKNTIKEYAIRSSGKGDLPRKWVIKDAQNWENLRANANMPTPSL
Sequence of Cac1C K583E (Q12495 520-606 K583E): as the sequence (Q12495 520-606) above, with K64E counted along it
Sequence of Cac1C K553E (Q12495 520-606 K553E): as the sequence (Q12495 520-606) above, with K34E counted along it
Sequence of GST-Cac2 (Q04199 1-438): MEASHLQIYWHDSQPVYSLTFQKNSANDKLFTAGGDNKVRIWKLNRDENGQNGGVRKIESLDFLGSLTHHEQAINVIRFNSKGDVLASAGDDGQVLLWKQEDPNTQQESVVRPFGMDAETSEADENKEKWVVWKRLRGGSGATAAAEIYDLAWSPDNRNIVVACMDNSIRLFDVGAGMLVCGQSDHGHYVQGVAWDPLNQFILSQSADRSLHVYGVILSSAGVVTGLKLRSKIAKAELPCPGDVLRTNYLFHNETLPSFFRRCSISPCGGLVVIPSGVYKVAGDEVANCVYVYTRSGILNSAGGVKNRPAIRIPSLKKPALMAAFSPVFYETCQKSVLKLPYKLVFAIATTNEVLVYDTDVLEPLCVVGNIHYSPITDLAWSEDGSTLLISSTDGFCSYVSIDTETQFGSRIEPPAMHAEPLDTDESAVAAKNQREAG
Sequence of Hsp150C (Q13111 727-854): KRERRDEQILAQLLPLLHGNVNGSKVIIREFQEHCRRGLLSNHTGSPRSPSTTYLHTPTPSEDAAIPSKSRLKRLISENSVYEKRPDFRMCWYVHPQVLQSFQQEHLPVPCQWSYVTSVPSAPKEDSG
Sequence of Cac1C K577E (Q12495 520-606 K577E): as the sequence (Q12495 520-606) above, with K58E counted along it
Sequence of Cac1 (in CAF-1);GST-Cac2;Cac3 (budding yeast (Q12495 91-606, chain 1 of 3): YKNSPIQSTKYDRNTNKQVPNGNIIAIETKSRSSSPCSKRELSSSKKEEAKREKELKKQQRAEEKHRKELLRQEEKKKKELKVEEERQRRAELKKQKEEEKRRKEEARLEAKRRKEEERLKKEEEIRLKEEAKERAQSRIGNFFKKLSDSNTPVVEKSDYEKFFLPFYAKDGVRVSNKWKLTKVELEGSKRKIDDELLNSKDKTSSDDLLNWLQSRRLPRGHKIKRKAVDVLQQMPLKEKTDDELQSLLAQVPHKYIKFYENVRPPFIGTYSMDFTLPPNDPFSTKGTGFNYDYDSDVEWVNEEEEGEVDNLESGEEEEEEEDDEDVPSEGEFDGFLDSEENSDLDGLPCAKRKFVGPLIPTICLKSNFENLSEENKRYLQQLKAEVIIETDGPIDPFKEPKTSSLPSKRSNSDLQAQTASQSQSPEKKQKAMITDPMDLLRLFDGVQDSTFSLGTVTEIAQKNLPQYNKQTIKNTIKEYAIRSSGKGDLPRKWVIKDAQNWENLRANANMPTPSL
Sequence of Cac1 (in CAF-1);GST-Cac2;Cac3 (budding yeast (Q04199 1-438, chain 2 of 3): as the sequence (Q04199 1-438) above
Sequence of Cac1 (in CAF-1);GST-Cac2;Cac3 (budding yeast (P13712 whole entry, chain 3 of 3): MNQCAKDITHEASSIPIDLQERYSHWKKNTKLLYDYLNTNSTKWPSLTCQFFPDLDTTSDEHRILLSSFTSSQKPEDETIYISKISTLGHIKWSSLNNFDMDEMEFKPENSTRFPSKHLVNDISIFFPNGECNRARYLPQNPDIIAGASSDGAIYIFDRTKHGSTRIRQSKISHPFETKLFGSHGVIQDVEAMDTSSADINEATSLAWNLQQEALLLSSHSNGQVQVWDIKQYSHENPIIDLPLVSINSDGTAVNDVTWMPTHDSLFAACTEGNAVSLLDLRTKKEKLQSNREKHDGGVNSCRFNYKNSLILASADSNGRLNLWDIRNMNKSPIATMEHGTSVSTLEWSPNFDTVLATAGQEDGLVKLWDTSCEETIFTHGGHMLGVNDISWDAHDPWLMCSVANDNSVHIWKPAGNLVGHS

B1: AT-rich (dsDNA)
DNA 1: ATAATCGATATT
DNA 2: AATATCGATTAT
B1: binds (Cac1C (C-terminal WHD) [1]).

B2: 58 bp (dsDNA)
DNA 1: ATACATTTTATGACTGGAAACTTTTTTGTACAACACTCCAATAAACATTTTGATTTTA
DNA 2: TAAAATCAAAATGTTTATTGGAGTGTTGTACAAAAAAGTTTCCAGTCATAAAATGTAT
B2: binds (Cac1C K577E); binds (Cac1C K553E); binds (Cac1C K583E). B2: binds (Cac1C (C-terminal WHD) [2]); binds (Mmp150C); binds (Hsp150C). B2: no binding (Mmp150C 4KE).

B3: 58 bp biotinylated (dsDNA)
DNA 1: B2 DNA 1
DNA 2: B2 DNA 2
modifications: biotin on one strand
B3: binds [3]; binds (Cac1C (C-terminal WHD) [4]); no binding (GST-Cac2).

CAACAAAACCCCAACCCCAAACCACACC (ssDNA) [ssDNA]: binds (Cac1C (C-terminal WHD) [5]).

B4: GC-rich (dsDNA)
DNA 1: ATCGCCCGCGCA
DNA 2: TGCGCGGGCGAT
B4: binds (Cac1C (C-terminal WHD) [6]).
